Assay in all cases: purified protein, by the assay type
Common to all, as to conditions: other: pH 7.5, 200 mM KCl, DTNB, 25° C.

Substrate in data set [1]: CCCC(=O)SCCNC(=O)CCNC(=O)[C@H](O)C(C)(C)COP(=O)(O)OP(=O)(O)OC[C@H]1O[C@@H](n2cnc3c(N)ncnc32)[C@H](O)[C@@H]1OP(=O)(O)O
Experimental: (§1) Cultures for enzymatic assays were grown overnight in 100 mL of LB media at 37° C. in 250 mL baffled flasks (Wheaton Industries, Inc., Millville, N.J.) in E. coli BL21 (DE3) cells induced with either 1 mM IPTG (pCA24N, pTrcHis2A) or 1 mM Arabinose (pUCBB-pBAD) at an OD600˜0.6, or expressed constitutively (pUCBB-ntH6). Reactions were monitored on either a Synergy HT plate reader (BioTek Instruments, Inc., Winooski, Vt.) at 25° C. (for reactions monitored at 300 nm or higher) or in a Biomate 5 Spectrophotometer (Thermo Scientific, Waltham, Mass.) for reactions at 263 nm.
(§2) Cells were lysed using Bacterial Protein Extraction Reagent (B-PER) (Thermo Scientific, Waltham, Mass.) as per the prescribed protocol in order to obtain the supernatant containing the active enzymes.
(§3) For kinetic characterization, an appropriate amount of enzyme was established by checking linear range near predicted KM values. Then, the rates were measured for a range of substrates in order to establish kcat and KM. In the cases of FadB for the crotonase reaction and FadA in the “forward” thiolase reaction coupled with HBD, substrate saturation could not be established, as such, the kcat/KM for the reaction was determined by dividing the linear slope of Velocity vs. [Substrate] by the amount of enzyme used in the assays. For reactions that could be saturated, Velocity vs. [Substrate] was fitted by the EnzKIN Matlab module (mathworks.com/matlabcentral/fileexchange/26653) to establish Vmax and KM.
(§4) Thioesterase activity was monitored by following the production of TNB at 412 nm (ε=4.3 mM^−1 cm^−1)^30. Reactions were carried out in the presence of 100 mM Tris pH 7.5, 200 mM KCl, 25 mM DTNB and 200 μM of the ‘-CoA’ substrate in a volume of 200 μL at 25° C.
Substrate in data set [2]: C/C=C/C(=O)SCCNC(=O)CCNC(=O)[C@H](O)C(C)(C)COP(=O)(O)OP(=O)(O)OC[C@H]1O[C@@H](n2cnc3c(N)ncnc32)[C@H](O)[C@@H]1OP(=O)(O)O
Experimental: as §1, §2, §3, §4
Substrate in data set [3]: CC(O)CC(=O)SCCNC(=O)CCNC(=O)[C@H](O)C(C)(C)COP(=O)(O)OP(=O)(O)OC[C@H]1O[C@@H](n2cnc3c(N)ncnc32)[C@H](O)[C@@H]1OP(=O)(O)O
Experimental: as §1, §2, §3, §4
Substrate in data set [4]: CC(=O)CC(=O)SCCNC(=O)CCNC(=O)[C@H](O)C(C)(C)COP(=O)(O)OP(=O)(O)OC[C@H]1O[C@@H](n2cnc3c(N)ncnc32)[C@H](O)[C@@H]1OP(=O)(O)O
Experimental: as §1, §2, §3, §4
Substrate in data set [5]: CC(=O)SCCNC(=O)CCNC(=O)[C@H](O)C(C)(C)COP(=O)(O)OP(=O)(O)OC[C@H]1O[C@@H](n2cnc3c(N)ncnc32)[C@H](O)[C@@H]1OP(=O)(O)O
Experimental: as §1, §2, §3, §4

B1: E. coli YciA (acyl-CoA thioesterase, NP_415769.1), wild type (Escherichia coli K-12) (protein)
chain: MSTTHNVPQGDLVLRTLAMPADTNANGDIFGGWLMSQMDIGGAILAKEIAHGRVVTVRVEGMTFLRPVAVGDVVCCYARCVQKGTTSVSINIEVWVKKVASEPIGQRYKATEALFKYVAVDPEGKPRALPVE
Consider B1, for which the Km was found to be 641.8 ± 91.9 µM in data set [1]; 1348.8 ± 235.5 µM in data set [2]; 353.8 ± 38.8 µM in data set [3]; 875.7 ± 180.9 µM in data set [4]; 42.7 ± 1.2 µM in data set [5]. For the same protein, the kcat came out at 558 ± 79.6 s⁻¹ in data set [1] and 265 ± 54.7 s⁻¹ in data set [4]. The kcat/Km in data set [1] worked out at 869000 M⁻¹ s⁻¹; in data set [4], 302000 M⁻¹ s⁻¹.

The values are drawn from patent US9994881B2, “Functionalized carboxylic acids and alcohols by reverse fatty acid oxidation in engineered microbes” (William Marsh Rice University, priority 2011, dated 2018).
